The values that follow come from article PMC12650828, “Dual-Mode Aptamer AP1-F Achieves Molecular–Morphological Precision in Cancer Diagnostics via Membrane NCL Targeting”.

The target in the series is nucleolin (NCL) (Homo sapiens, UniProt P19338 1-710). As to the kind of experiment: MST; MST: 300 nM FAM-aptamer, NCL 1.95 nM-4 uM, binding buffer not specified, 25 C, 15 min; AP1-AP6 and Mut folded in 100 mM KCl, 10 mM K3PO4 pH 7.0; AS1411 in 100 mM NaCl, 10 mM Tris-HCl pH 7.0; cell competition at 4 C, 1 h. The conditions noted are these: protein: commercial, label: 5'-FAM (amide bond linker).
Chain of nucleolin (NCL) (P19338 whole entry): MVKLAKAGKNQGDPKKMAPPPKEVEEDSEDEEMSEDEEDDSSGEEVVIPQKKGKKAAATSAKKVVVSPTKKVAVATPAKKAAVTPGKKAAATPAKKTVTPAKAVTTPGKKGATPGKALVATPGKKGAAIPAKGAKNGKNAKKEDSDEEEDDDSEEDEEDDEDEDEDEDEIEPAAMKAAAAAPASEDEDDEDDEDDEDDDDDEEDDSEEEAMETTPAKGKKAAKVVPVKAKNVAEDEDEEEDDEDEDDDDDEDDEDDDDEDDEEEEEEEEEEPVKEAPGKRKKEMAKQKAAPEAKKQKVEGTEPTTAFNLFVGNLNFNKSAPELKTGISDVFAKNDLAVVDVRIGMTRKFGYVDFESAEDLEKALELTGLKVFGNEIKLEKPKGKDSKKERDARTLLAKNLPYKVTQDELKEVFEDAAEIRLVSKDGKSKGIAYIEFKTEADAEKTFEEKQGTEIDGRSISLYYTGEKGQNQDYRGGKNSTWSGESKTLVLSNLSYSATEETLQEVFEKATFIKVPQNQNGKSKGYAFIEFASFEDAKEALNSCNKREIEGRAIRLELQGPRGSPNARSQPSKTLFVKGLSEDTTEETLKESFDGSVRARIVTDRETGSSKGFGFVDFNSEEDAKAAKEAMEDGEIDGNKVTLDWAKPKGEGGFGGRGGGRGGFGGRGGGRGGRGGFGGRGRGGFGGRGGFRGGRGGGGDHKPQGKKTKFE

The term Kd denotes a measure of binding affinity in units of concentration. High values mean lower affinity, low ones higher affinity. In turn, GUUAGGGUUUAUGGGAUUG (structured_RNA) [AP3-F] showed a dissociation constant Kd (G4, loop-length variant) of 499 ± 95.5 nM.

GUUAGGGUUUAUUAUGGGAUUG (structured_RNA) [AP6-F] registered a Kd (G4, loop-length variant) of 507 ± 132 nM.

GUUAGGGUUUAUUGGGAUUG (structured_RNA) [AP4-F] had a Kd (G4, loop-length variant) of 822 ± 290 nM.

With GUUAGGGUUUUGGGAUUG (structured_RNA) [AP2-F], the Kd (G4, loop-length variant) stood at 621 ± 269 nM.

Where the note is “G4”, GUUAGGGUUUGGGAUUG (structured_RNA) [AP1-F] showed a Kd of 474 ± 47.7 nM.

With GUUAGGGUUUAUUUGGGAUUG (structured_RNA) [AP5-F], the dissociation constant (Kd) (G4, loop-length variant) amounted to 926 ± 140 nM.
